The values that follow come from US20230416326A1 (LETO LABORATORIES, published 2023).

In assay [1] the target is T1, IL-2/15R β and γ on Mo7e cells (UniProt P14784 27-551; P31785 23-369, limits assumed).
T1 sequence (looked up) 1: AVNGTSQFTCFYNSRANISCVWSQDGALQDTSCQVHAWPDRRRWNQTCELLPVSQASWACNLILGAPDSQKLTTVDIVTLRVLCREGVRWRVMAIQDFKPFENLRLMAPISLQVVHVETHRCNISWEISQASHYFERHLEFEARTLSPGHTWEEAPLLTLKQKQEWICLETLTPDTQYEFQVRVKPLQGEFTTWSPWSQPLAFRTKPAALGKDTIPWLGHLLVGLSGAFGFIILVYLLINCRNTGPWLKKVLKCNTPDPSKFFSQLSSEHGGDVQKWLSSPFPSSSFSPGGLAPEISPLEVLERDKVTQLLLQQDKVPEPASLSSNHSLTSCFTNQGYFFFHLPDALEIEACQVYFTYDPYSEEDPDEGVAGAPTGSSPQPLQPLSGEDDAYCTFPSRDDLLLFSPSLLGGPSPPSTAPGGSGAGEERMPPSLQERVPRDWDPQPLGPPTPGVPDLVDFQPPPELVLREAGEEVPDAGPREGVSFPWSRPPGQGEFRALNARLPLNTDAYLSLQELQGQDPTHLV
T1 sequence (looked up) 2: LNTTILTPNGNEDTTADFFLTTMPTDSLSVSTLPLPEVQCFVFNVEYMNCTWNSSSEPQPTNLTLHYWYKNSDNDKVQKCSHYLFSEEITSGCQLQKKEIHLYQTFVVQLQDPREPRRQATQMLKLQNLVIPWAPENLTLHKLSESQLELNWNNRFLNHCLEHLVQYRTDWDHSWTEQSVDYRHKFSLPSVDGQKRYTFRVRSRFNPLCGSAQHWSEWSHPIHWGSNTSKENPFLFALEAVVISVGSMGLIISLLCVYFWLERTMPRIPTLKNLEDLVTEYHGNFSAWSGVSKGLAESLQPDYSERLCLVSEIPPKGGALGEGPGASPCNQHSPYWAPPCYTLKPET
Put plainly: cell-based or functional assay.

The target of the next assay is T2, IL2Rα-his (UniProt P01589 22-240, limits assumed).
T2 construct: Made in-house; also called interleukin-2 receptor alpha; CD25; not shown: his tag
T2 sequence (looked up): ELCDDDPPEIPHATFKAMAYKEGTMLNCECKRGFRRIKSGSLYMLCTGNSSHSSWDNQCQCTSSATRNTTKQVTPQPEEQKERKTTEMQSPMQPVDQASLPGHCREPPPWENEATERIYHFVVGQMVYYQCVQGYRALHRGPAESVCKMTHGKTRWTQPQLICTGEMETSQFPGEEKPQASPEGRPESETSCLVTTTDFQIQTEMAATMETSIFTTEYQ
Put plainly: BLI (Octet RED96), receptor immobilised on sensor. The protocol:
(§1) BLI was used to determine the affinity of a target protein for a receptor by a method with reference to (Estep, P et al., High throughput solution Based measurement of antibody-antigen affinity and epitope binning. MAbs, 2013.5 (2): p. 270-8). The receptor proteins IL-15Rα-his, IL2Rα-his, and IL2/15Rβ-Fc/Fc used in the experiment were each produced by the company of the present application, and both an IL-2 derivative without IL2Rα binding and an IL-2 complex without IL2Rα binding were prepared according to the description in Patent Publication CN111018961A. An IL-15(N72D)/Sushi-hIgG1Fc complex was prepared according to the literature (K.-p. Han et al./Cytokine 56 (2011) 804-810). A buffer was prepared according to the following formula: 10 mM HEPES, 150 mM NaCl, 3 mM EDTA, 0.1% BSA, and 0.05% tween20. Receptor proteins were each pre-immobilized in advance on a corresponding sensor. Then the steps of baseline, loading, baseline, association, and dissociation were conducted according to the established method (see Estep, P et al., High throughput solution Based measurement of antibody-antigen affinity and epitope binning. MAbs, 2013. 5 (2): p. 270-8). Data acquisition and analysis were conducted using the Fortebio Octet RED96 software Data acquisition 11.0 and Data analysis 11.0, respectively. Results are shown in Table 1 (the smaller the value, the stronger the affinity).

A further assay deals with T3, IL-15Rα-his (Homo sapiens (Human), UniProt Q13261 31-205, limits assumed).
T3 construct: also called interleukin-15 receptor alpha; not shown: his tag
Put plainly: BLI (Octet RED96), receptor immobilised on sensor. The protocol: as §1

Another assay deals with T4, IL2/15Rβ-Fc/Fc (UniProt P14784 27-240).
T4 construct: Made in-house; The label 'Fc/Fc' is not explained; it is read here as one receptor-Fc chain paired with an Fc-only chain; also called IL2Rβ; CD122; not shown: Fc; second Fc chain implied by the label 'Fc/Fc'
Put plainly: BLI (Octet RED96), receptor immobilised on sensor. The protocol:
as §1

The target of a further assay is T5, Sushi-hIgG4Fc.
T5 construct: IL15Rα Sushi domain fused to human IgG4 Fc; also called Sushi-Fc
Put plainly: co-expression in HEK293, purification, SEC-HPLC. As for the experimental part:
The IL-2/15 chimera 1 was co-expressed with each of the Sushi-hIgG1Fc, Sushi-hIgG4Fc, and Sushi-mlgg2aa.1Fc, and heterodimer complexes could be generated during expression, which were respectively named as complex 1, complex 2, and complex 3 and all carried an Fc tag. Mabselect sure (Protein A, GE healthcare) was used for affinity purification, and a purification method was in accordance with instructions of a purification packing. Then further purification was conducted by gel filtration chromatography (GFC) (Superdex200 […], GE Healthcare) to obtain a protein with high purity, and the aggregate was removed. The purity analysis was conducted using a high-performance liquid chromatography (HPLC) molecular sieve column (SEC-HPLC), and the results are shown in FIGS. 1A-1C.

Substitutions are numbered along the chain they refer to.

B1: Complex 3 (heterodimer complex of IL-2/15 chimera 1 and Sushi-mIgG2aa.1Fc) (Fc fusion)
chain 1: APTSSSTKKTQLQLEHLLLDLQMILNGIQSMHIDATLYTESDVHPSCKVTAMKCFLLELQVISLESGDASIHDTVENLIILANNSLSSNGNVTESGCKECEELEEKNIVEFLNRFITFAQSIISTLT
chain 2: ITCPPPMSVEHADIWVKSYSLYSRERYICNSGFKRKAGTSSLTECVLNKATNVAHWTTPSLKCIREPRGPTIKPCPPCKCPAPNAEGAPSVFIFPPKIKDVLMISLSPIVTCVVVDVSEDDPDVQISWFVNNVEVHTAQTQTHREDYNSTLRVVSALPIQHQDWMSGKEFKCKVNNKQLPSSIERTISKPKGSVRAPQVYVLPPPEEEMTKKQVTLTCMVTDFMPEDIYVEWTNNGKTELNYKNTEPVLDSDGSYFMYSKLRVEKKNWVERNSYSCSVVHEGLHNHHTTKSFSRTPGK
notes: also called IL-2/15 chimera 1-Sushi-Fc
Take B1: the “EC50 (nM), promotion of Mo7e cell proliferation” value in assay [1] came to 0.319 nM. In addition, the binding result with IL2Rα-his and with IL-15Rα-his was “no binding (tested: 100 nM)” throughout. In the assay with IL2/15Rβ-Fc/Fc, this molecule came in with a Kd of 0.512 nM.

B2: IL-2/15 chimera 1 (ligand)
chain: B1 chain 1
notes: also called modified IL-2 molecule
For B2, the “EC50 (nM), promotion of Mo7e cell proliferation” value in assay [1] came to 2.25 nM. In addition, the binding result in the assay with IL2Rα-his is recorded as “no binding (tested: 100 nM)”. Further, the Kd with IL-15Rα-his was found to be 3.89 nM; with IL2/15Rβ-Fc/Fc, 973 nM.

B3: IL-2/15 chimera 2 (ligand)
chain: B1 chain 1 with F115W
notes: Chimera 1 with F at position 115 mutated back to W; position 115 corresponds to position 121 of natural IL-2
As for B3, the binding result with Sushi-hIgG4Fc is given as “binds”.
